{"source": "paper PMC3718739", "about": "(PLoS ONE, 2013)", "binders": {"B1": {"name": "GST-Rv1626 (natural protein)", "chain": "MTGPTTDADAAVPRRVLIAEDEALIRMDLAEMLREEGYEIVGEAGDGQEAVELAELHKPDLVIMDVKMPRRDGIDAASEIASKRIAPIVVLTAFSQRDLVERARDAGAMAYLVKPFSISDLIPAIELAVSRFREITALEGEVATLSERLETRKLVERAKGLLQTKHGMTEPDAFKWIQRAAMDRRTTMKRVAEVVLETLGTPKDT", "notes": "also called Rv1626-pGEX4T3nn; not shown: GST, N-terminal, kept"}}, "biological_target": "ARPC4-His6x (human, UniProt P59998 1-168)", "test": "far-Western, overlay or dot blot", "details": "both partners purified", "data": [{"binder": "B1", "values": [{"measurement": "binding result", "result": "binds"}]}]}
